Data from paper PMC4831024.

Target: Ku70/Ku80ΔC heterodimer, P12956;P13010
Assay: fluorescence polarisation
Details: read at the highest Ku concentration, about 14 µM KuΔC; 100 nM fluorescein-labeled peptide; room temperature; 20 mM HEPES pH 7.5, 200 mM NaCl, 0.5 mM TCEP; parent: est. 190; read off a plot

Substance: fluorescein-labelled WRN-nA peptide (N-terminal KBM of WRN) W18A
- response: 19 millidegrees
